# Source: publication PMC5343089, “^1H, ^15N, ^13C backbone resonance assignments of human soluble catechol O-methyltransferase in complex with S-adenosyl-L-methionine and 3,5-dinitrocatechol” (Biomolecular Nmr Assignments, 2016)
# B1: human soluble catechol O-methyltransferase (enzyme, UniProt P21964-2 1-221, looked up)
# chain: QGDTKEQRILNHVLQHAEPGNAQSVLEAIDTYCEQKEWAMNVGDKKGKIVDAVIQEHQPSVLLELGAYCGYSAVRMARLLSPGARLITIEINPDCAAITQRMVDFAGVKDKVTLVVGASQDIIPQLKKKYDVDTLDMVFLDHWKDRYLPDTLLLEECGLLRKGTVLLADNVICPGAPDFLAHVRGSSCFECTHYQSFLEYREVVDGLEKAIYKGPGSEAGP
# notes: Catechol O-methyltransferase, human, soluble isoform (S-COMT), EC 2.1.1.6; valine at the polymorphic position 108; 233 residues with the 12-residue tag, so 221 residues of S-COMT; Q belongs to the ENLYFQG site; 2H,15N,13C-labelled protein; Val108 allele; also called S-COMT; human S-COMT; source: E. coli BL21(DE3), pET21a, purified (His-Trap Ni-Sepharose, Superdex 75 size exclusion)
# Target: the molecule itself
# Assay: SEC + native gel or EMSA + other: mass spectrometry; Superdex 75 26/60, 50 mM Tris-HCl pH 7.5, 50 mM NaCl, 10 mM DTT, 4 °C; two separated peaks; native gel electrophoresis and mass spectrometry not shown
protein,measurement,value
B1,stoichiometry N,2
